This assay deals with protective antigen, full-length wild type, nicked (nPA) and assembled into oligomers (Bacillus anthracis). Briefly: electron microscopy.

Substance “protective antigen, full-length wild type, nicked (nPA) and assembled into oligomers (natural protein)” displayed a fold less octamer with Δ47 LFN than with WT LFN of 10 fold.

The record behind these values is publication PMC3133606.
